This passage reports Hydrophobicity value and Retention time results from patent US20250161474A1, “ANTIBODY-DRUG CONJUGATES TARGETING EGFR/C-MET AND PREPARATION METHODS AND USES THEREOF” (Sichuan Kelun-Biotech Biopharmaceutical Co., Ltd., priority 2023, published 2025).

Series [1] in a line: Hydrophilicity of ADCs (HIC, TSKgel Butyl-NPR). In kind it is physicochemical. Conditions: for Hydrophobicity value: (RT sample − RT hydrophilic control)/(RT hydrophobic control − RT hydrophilic control), Tagitanlimab = 0, Sacituzumab = 1; for Retention time: HIC, TSKgel Butyl-NPR column, 30°C, smaller = more hydrophilic. As for the experimental part:
The column temperature was 30° C., the detection wavelength was 280 nm, and the flow rate was: 0.5 mL/min, mobile phase A: 1.5 mol/L (NH4)2SO4; mobile phase B: 25 mmol/L Na2HPO4, pH=7.0, 25% isopropanol alcohol (IPA). For analysis, a test sample of ADC was diluted to 1 mg/mL solution using the diluent 0.75 mol/L (NH4)2SO4 to provide a test solution. The hydrophilic control antibody was Tagitanlimab and the hydrophobic control antibody was Sacituzumab. Control antibodies were produced by Sichuan Kelun-Biotech Biopharmaceutical Co., Ltd. using the diluent to make a 1 mg/mL test solution as the system suitability solution. […] After testing, the hydrophobicity value of the test sample was calculated based on the control sample. The calculation formula was: (Retention time of test sample−Retention time of hydrophilic control)/(Retention time of hydrophobic control−Retention time of hydrophilic control).

Series [2] is described as follows: Hydrophilicity of bispecific antibodies (HIC, TSKgel Butyl-NPR). Conditions: for Hydrophobicity value: (RT sample − RT hydrophilic control)/(RT hydrophobic control − RT hydrophilic control), Tagitanlimab = 0, Sacituzumab = 1; for Retention time: HIC, TSKgel Butyl-NPR column, 30°C, smaller = more hydrophilic. In kind it is physicochemical. As for the experimental part: Column temperature: 30° C., detection wavelength: 280 nm, flow rate: 0.5 ml/min, mobile phase A: 1.5 mol/L (NH4)2SO4, mobile phase B: 25 mmol/L Na2HPO4, pH=7.0, 25% IPA. A suitable amount of the test sample was diluted with diluent (0.75 mol/L (NH4)2SO4) to make a solution of 1.0 mg/ml as the test sample solution. The control antibodies were Tagitanlimab as a hydrophilic control (disclosed in WO2017148424) and Sacituzumab as a hydrophobic control (disclosed in WO2019114666). (Both antibodies are produced by Kelun-Biotech.) Each of the control antibodies were diluted with the diluent to make a solution of 1.0 mg/ml as the system suitability solution. About […] of sample was injected and analyzed in gradient elution: 0-3 min, maintaining mobile phase A of 95% and mobile phase B of 5%; 3-40 min, mobile phase B from 5% to 100%; 40-45 min, maintaining mobile phase A of 95% and mobile phase B of 5%. The hydrophobicity value of the test sample was calculated according to the control sample with the formula: (retention time of the test sample−retention time of the hydrophilic control)/(retention time of the hydrophobic control−retention time of the hydrophilic control), and the smaller the retention time and hydrophobicity value, the better the hydrophilicity of the antibody.

As for Tagitanlimab, in series [1], the Hydrophobicity value was 0.00 and the Retention time was 11.01 min. Besides, in series [2], the Hydrophobicity value is recorded as 0.00 and the Retention time is on record as 11.009 min.

Regarding Sacituzumab, in series [1], the Hydrophobicity value stood at 1.00 and the Retention time was determined as 19.00 min. In series [2], this substance gave a Hydrophobicity value of 1.00 and a Retention time of 19.001 min.
